Results from patent US5405946A, “Recombinant protein S variants deficient in C4BP binding activity, compositions and therapeutic methods” (The Scripps Research Institute, priority 1992, dated 1995).
Where a chain is given by its changes, count along the chain named. Numbers in names are those of the source. Entries after “also recorded” stand apart in the source; their conditions may differ. Each block holds one molecule with its values, some of them ahead of it.

How the values were obtained:
C4BP = target: T1, C4BP (Homo sapiens, UniProt P20851); settings: PS association with C4BP in plasma; read-out: dissociation constant; cited from earlier work
T1 sequence (P20851 18-252): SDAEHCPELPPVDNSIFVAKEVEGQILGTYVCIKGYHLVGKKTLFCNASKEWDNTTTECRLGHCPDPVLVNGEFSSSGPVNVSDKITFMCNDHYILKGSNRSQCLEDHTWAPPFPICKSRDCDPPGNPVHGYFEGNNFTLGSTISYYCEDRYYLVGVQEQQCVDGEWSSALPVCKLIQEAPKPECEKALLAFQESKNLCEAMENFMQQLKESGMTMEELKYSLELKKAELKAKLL
T1 sequence (P04003 49-597 partner): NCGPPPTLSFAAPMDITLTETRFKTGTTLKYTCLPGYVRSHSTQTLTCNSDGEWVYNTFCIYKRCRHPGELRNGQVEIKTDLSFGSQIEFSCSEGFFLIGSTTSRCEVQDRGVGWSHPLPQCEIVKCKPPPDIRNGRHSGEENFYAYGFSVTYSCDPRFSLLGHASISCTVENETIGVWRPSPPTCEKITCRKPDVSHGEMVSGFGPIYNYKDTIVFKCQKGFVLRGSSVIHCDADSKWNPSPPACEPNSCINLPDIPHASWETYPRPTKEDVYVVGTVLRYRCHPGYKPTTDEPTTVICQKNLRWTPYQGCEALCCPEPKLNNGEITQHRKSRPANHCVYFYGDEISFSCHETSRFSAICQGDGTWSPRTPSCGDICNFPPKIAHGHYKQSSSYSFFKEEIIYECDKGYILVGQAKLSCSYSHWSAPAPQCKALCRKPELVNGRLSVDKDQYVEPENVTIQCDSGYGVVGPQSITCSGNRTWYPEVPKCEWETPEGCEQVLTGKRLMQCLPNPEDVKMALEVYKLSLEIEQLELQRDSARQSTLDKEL

[1] = target: T2, human C4b-binding protein (C4BP) (Homo sapiens, UniProt P20851); experiment: ELISA of complex formation between recombinant PS variant proteins and C4BP; settings: C4BP 1 ug/ml, 18 hours room temperature
T2 sequence (P20851 18-252): T1 sequence (P20851 18-252)
T2 sequence (P04003 49-597 partner): T1 sequence (P04003 49-597 partner)
Experimental: The complex formation between the recombinant PS variant proteins and C4BP was measured with a sensitive ELISA using C4BP and a peroxidase conjugated anti-PS antibody as described by Chang et al., Thromb. Haemost., 67:526-532 (1992). Briefly, IgG at a concentration of 10 ug/ml from monoclonal antibody 8C11, which is directed against the alpha chain of C4BP (Hessing et al., J. Immunol., 144:204-208 (1990)), was coated in 50 mM NaHCO3 at pH 9.6 overnight at 4C. onto polyvinyl microtiter plates (Costar, Cambridge, Mass.). After washing to remove the unbound IgGs, the wells were blocked with 1% (w/v) BSA in 50 mM Tris-HCl at pH 7.5 containing 150 mM NaCl and 5 mM CaCl2 for 1 hour at room temperature. C4BP, prepared as described by Hessing et al., supra, was allowed to bind for 2 hours with a final concentration of 1 ug/ml. Increasing amounts of recombinant PS proteins (E424K, Q427E, K429E, […] and K432E) and wild-type recombinant PS prepared in Example 1 were then added in concentrations ranging from 0-150 ng/ml and maintained for 18 hours at room temperature. Bound proteins were allowed to bind to rabbit anti-human PS IgG conjugated to peroxidase (Dakopatts, Glostrup, Denmark) at a concentration of 0.3 ug/ml for 2 hours at room temperature. After washing the wells to remove the unbound proteins, 100 ul of 0.1M sodium phosphate/0.2M sodium citrate at pH 5.0 containing 0.04% 1,2-phenylenediamine dihydrochloride and 0.015% hydrogen peroxide was added. The hydrolysis of phenylenediamine was stopped by adding 50 ul 2N sulfuric acid. The absorbance was measured at 490 nm using a Vmax plate reader (Molecular Devices Corp., Menlo Park, Calif.). The data represented the mean of duplicate determinations.
The binding of the of the thrombin domain recombinant PS variants to C4BP was determined. The complex formation between the recombinant proteins and C4BP was measured with a sensitive ELISA using anti-C4BP monoclonal antibody 8C11 lgG, purified C4BP and peroxidase conjugated anti-PS antibody as described in Example 2A.
Anti-C4BP monoclonal antibody 8C11 IgG was coated onto microtiter wells to catch C4BP (1 ug/ml). Increasing amounts (0-100 ng/ml) of recombinant PS or variants (R49L, R60L, R70I, R49L/R60L, R60L/R70I, R49L/R70I and R49L/R60L/R70I) were added. Binding to C4BP was for 18 hours at room temperature. Bound PS variants were detected with anti-PS IgG conjugated to peroxidase (0.3 ug/ml). The results are the mean of duplicate values in two different experiments.

thrombin [2] = target: T3, thrombin (Homo sapiens, UniProt P00734); experiment: Reduced SDS-PAGE of PS variants with thrombin treatment; type: biochemical; settings: reduced SDS gels
T3 construct: maintained with 1/20 vol (50 ul) of thrombin-Sepharose for 1 hour at 37C
Experimental: The purity and integrity of the recombinant PS variants was established by SDS-PAGE on 12.5% gradient gels according to Laemmli, Nature, 227:680-685 (1970) using the Phast system (Pharmacia Biotechnology, Sweden). After electrophoresis, the proteins were stained with silver nitrate or transferred onto Immobilon membranes for subsequent detection by Western blot analysis using rabbit anti-PS IgG conjugated to peroxidase (3 ug/ml).
For the thrombin-sensitive PS variant proteins, on reduced SDS gels, purified recombinant PS and the single and double variants all migrated as a doublet. […] The upper band of the doublet for recombinant PS and the single and double variants all could be converted into the lower band by thrombin treatment.

[3] = target: activated protein C (APC) (Homo sapiens, UniProt P04070); experiment: Activated partial thromboplastin time clotting assay, APC cofactor activity in PS- and C4BP-depleted plasma; type: biochemical
Experimental: (§1) An activated partial thromboplastin time clotting assay, using PS- and C4BP-depleted plasma, cephalin-kaolin reagent (Boehringer Mannhein, Indianapolis, Ind.), activated protein C (APC) and increasing amounts of recombinant PS variants was performed as described by Chang et al., Thromb. Haemost., 67:526-532 (1992). Briefly, to 50 ul PS and C4BP-depleted plasma (prepared as described by Koedam et al., J. Clin. Invest., 82:1236-1243 (1988)) was added 50 ul cephalin-kaolin reagent, 25 ul APC (Koedam et al., ibid) at 5 ug/ml and 15 to 45 ul recombinant PS variants (0-4 ug/ml) diluted in Michaelis buffer (28.5 mM sodium acetate, 28.5 mM sodium barbital and 116 mM NaCl, pH 7.35) and maintained for 3 minutes at 37C. Clotting was initiated by addition of 50 ul of 25 mM CaCl2 and the clotting time was measured in an Amelung-Coagulometer KC10.
(§2) The ability of the variants to serve as a cofactor for APC was tested in a clotting assay. The clotting assay was performed as described in Example 2D. To examine the effects of thrombin on recombinant PS variants APC cofactor activity, one ml of purified recombinant PS variants listed above and prepared in Example 1D (4-40 ug/ml) was maintained with 1/20 vol (50 ul) of thrombin-Sepharose for 1 hour at 37C. in 50 mM Tris-HCl pH 7.5 containing […]. Thrombin-Sepharose was removed by centrifugation. Supernatants containing the thrombin-treated PS were stored at -20C. until used.
(§3) The PS-dependent prolongation of the clotting time was measured in an activated partial thromboplastin time system using PS and C4BP depleted plasma, APC and cephalin-kaolin reagent as described in Example 2D. Increasing amounts of recombinant PS or the triple variant treated without or with thrombin were added. Clotting was initiated by the addition of CaCl2 and the clotting time was measured. The results are presented as the means of duplicate values.

thrombin [4] = target: T3, thrombin; experiment: APC cofactor clotting assay after thrombin-Sepharose treatment of PS variants; type: biochemical
Experimental: as §1, §2, §3

[5] = test system: anti-PS monoclonal antibody LJ-56; experiment: Sandwich assay of LJ-56 reactivity to recombinant PS variant proteins; type: binding; settings: LJ-56 0-10 ug/ml
Experimental: Reactivity of LJ-56 to the recombinant PS variant proteins gave essentially the same results when a sandwich detecting assay was performed. In the sandwich assay, a fixed amount of recombinant PS variants produced in Example 1B1) (50 ng for E424K and 100 ng for wild type, Q427E and K429E) were added to wells previously coated with rabbit anti-PS IgG at 10 ug/ml in coating buffer and treated to block nonspecific binding sites as described above. Following a maintenance period for 18 hours at room temperature, the wells were washed with TBS and 100 ul of serial dilutions of anti-PS monoclonal antibody LJ-56 (0-10 ug/ml) was added and maintained for 2 hours at room temperature. Detection of the immunoreactant products was accomplished with rabbit anti-mouse IgG conjugated to peroxidase (1:1000). The hydrolysis of […] was measure at 490 nm using a Vmax plate reader as described in Example 2A.

[6] = first disulfide loop variants, 0-150 ng/ml, calcium
[7] = final conc. 0.6 ug/ml, basal clotting 80

Chain of activated protein C (APC) (P04070 212-461 limits assumed): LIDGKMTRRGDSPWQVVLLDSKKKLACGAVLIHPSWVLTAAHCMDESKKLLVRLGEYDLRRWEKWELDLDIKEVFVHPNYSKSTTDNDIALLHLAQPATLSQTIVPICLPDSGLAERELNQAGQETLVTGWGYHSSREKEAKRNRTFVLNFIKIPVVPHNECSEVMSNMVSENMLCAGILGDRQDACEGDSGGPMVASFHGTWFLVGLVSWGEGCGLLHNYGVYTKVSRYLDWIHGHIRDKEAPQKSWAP
Chain of activated protein C (APC) (P04070 43-197 limits assumed): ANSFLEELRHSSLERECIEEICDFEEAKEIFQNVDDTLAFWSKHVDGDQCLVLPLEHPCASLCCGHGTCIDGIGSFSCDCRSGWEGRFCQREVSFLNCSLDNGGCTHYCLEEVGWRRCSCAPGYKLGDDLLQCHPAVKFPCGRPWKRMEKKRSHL

Molecule: PS: vitamin K-dependent protein of 75,000 molecular weight with 635 amino acid residues
Kd (C4BP): 1 to 5 nM

B1: R49L/R60L/R70I variant: recombinant protein S triple variant, arginines 49, 60 and 70 replaced by leucine or isoleucine (protein)
chain: ANSLLEETKQGNLERECIEELCNKEEAREVFENDPETDYFYPKYLVCLLSFQTGLFTAALQSTNAYPDLISCVNAIPDQCSPLPCNEDGYMSCKDGKASFTCTCKPGWQGEKCEFDINECKDPSNINGGCSQICDNTPGSYHCSCKNGFVMLSNKKDCKDVDECSLKPSICGTAVCKNIPGDFECECPEGYRYNLKSKSCEDIDECSENMCAQLCVNYPGGYTCYCDGKKGFKLAQDQKSCEVVSVCLPLNLDTKYELLYLAEQFAGVVLYLKFRLPEISRFSAEFDFRTYDSEGVILYAESIDHSAWLLIALRGGKIEVQLKNEHTSKITTGGDVINNGLWNMVSVEELEHSISIKIAKEAVMDINKPGPLFKPENGLLETKVYFAGFPRKVESELIKPINPRLDGCIRSWNLMKQGASGIKEIIQEKQNKHCLVTVEKGSYYPGSGIAQFHIDYNNVSSAEGWHVNVTLNIRPSTGTGVMLALVSGNNTVPFAVSLVDSTSEKSQDILLSVENTVIYRIQALSLCSDQQSHLEFRVNRNNLELSTPLKIETISHEDLQRQLAVLDKAMKAKVATYLGGLPDVPFSATPVNAFYNGCMEVNINGVQLDLDEAISKHNDIRAHSCPSVWKKTKNS
binding to C4BP ([1]; thrombin domain variants, 0-100 ng/ml, in the presence of calcium): unaltered affinity for binding to C4BP | conversion of upper band into lower band by thrombin (thrombin [2]): not converted into a lower band, indicating that this triple variant was resistant to thrombin | Clotting Time ([3]; concentration 1.19 ug/ml, without protein S 72 ± 2 seconds): 84 s | APC cofactor activity ([3]; not treated with thrombin): higher APC cofactor activity (as defined by prolongation of the clotting time) than recombinant PS; also recorded: retained full APC cofactor activity | Clotting Time After Treatment (thrombin [4]; after thrombin treatment, concentration 1.19 ug/ml, without protein S 72 ± 2 seconds): 85 s | APC cofactor activity after treatment with thrombin (thrombin [4]; thrombin-Sepharose 1 hour at 37C): retained its APC cofactor activity; also recorded: remained unchanged; also recorded: completely resistant to inactivation by thrombin

B2: E424K variant: recombinant human protein S with Glu-424 replaced by Lys (protein)
chain: B1 chain with L49R, L60R, I70R, E424K
binding to C4BP [1, 6]: bound to C4BP with the same apparent affinity as the wild type recombinant molecule | Clotting Time [3, 7]: 97 s

B4: K432E variant: recombinant human protein S with Lys-432 replaced by Glu (protein)
chain: B1 chain with L49R, L60R, I70R, K432E
binding to C4BP [1, 6]: failed to bind to C4BP at concentrations up to 50 ng/ml

B6: I425A/I426A variant: recombinant human protein S with alanine in place of isoleucine at positions 425 and 426 (protein)
chain: B1 chain with L49R, L60R, I70R, I425A, I426A
binding to C4BP [1, 6]: failed to bind to C4BP at concentrations up to 50 ng/ml

The next lines start with results.

Clotting Time [3, 7]: 94 s
B3: Q427E variant: recombinant human protein S with Gln-427 replaced by Glu (protein)
chain: B1 chain with L49R, L60R, I70R, Q427E
binding to C4BP [1, 6]: bound to C4BP with the same apparent affinity as the wild type recombinant molecule

Clotting Time ([3]; final conc. 1.8 ug/ml, basal clotting 80): 88 s | clotting time at maximal inhibition of clotting ([3]; increasing amounts of variant): approximately 95 seconds
B5: K429E variant: recombinant human protein S with glutamic acid in place of lysine at position 429 (protein)
chain: B1 chain with L49R, L60R, I70R, K429E
binding to C4BP [1, 6]: failed to bind to C4BP at concentrations up to 50 ng/ml | recognition by LJ-56 [5]: not recognized | anticoagulant activity ([3]; in comparison with the basal clotting time of 80 seconds): anticoagulant activity increased linearly with increasing volumes of variant PS
